Source: EP4613280A1 (Plantibodies, dated 2025)

Target: T1, murine PD-1 receptor (mouse, UniProt Q02242 25-288)
T1 construct: Endogenous protein in tissue lysates, detected as a 50 kDa band on a western blot; also called mouse PD-1; mouse PD-1 receptor
T1 sequence (looked up): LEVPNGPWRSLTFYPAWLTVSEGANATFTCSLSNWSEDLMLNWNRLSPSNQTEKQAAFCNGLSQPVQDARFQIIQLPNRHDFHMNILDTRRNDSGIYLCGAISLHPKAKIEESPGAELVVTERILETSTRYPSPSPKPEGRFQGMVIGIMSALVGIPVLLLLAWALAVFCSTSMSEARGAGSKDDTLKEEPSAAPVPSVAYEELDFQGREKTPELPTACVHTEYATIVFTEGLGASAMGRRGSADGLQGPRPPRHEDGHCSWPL
Assay: western blot of mouse liver and lung lysates probed with nivolumab

B1: human recombinant Nivolumab (Thermofischer MA5-41974) (antibody, human IgG4 S228P, kappa, V domains shown)
VH: QVQLVESGGGVVQPGRSLRLDCKASGITFSNSGMHWVRQAPGKGLEWVAVIWYDGSKRYYADSVKGRFTISRDNSKNTLFLQMNSLRAEDTAVYYCATNDDYWGQGTLVTVSS
VL: EIVLTQSPATLSLSPGERATLSCRASQSVSSYLAWYQQKPGQAPRLLIYDASNRATGIPARFSGSGSGTDFTLTISSLEPEDFAVYYCQQSSNWPRTFGQGTKVEIKR
notes: Bought reagent, described as a fully humanized monoclonal antibody produced in mammalian cells such as HEK293; also called human Nivolumab; mammalian cell produced nivolumab (anti-PD1)
B1: binds.
